T1: FcgRIIaR (human, UniProt P12318 34-217)
T1 construct: extracellular domain; R131 allotype; also called FcγRIIa R; FcgRIIa type R; not shown: C-terminal His tag
T1 sequence (looked up): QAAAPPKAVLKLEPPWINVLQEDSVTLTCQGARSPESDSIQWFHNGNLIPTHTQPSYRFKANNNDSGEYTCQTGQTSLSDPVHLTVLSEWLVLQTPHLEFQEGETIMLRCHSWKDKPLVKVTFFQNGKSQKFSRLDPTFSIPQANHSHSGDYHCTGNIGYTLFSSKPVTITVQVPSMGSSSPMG

T2: FcgRIIb (human, UniProt P31994 43-217)
T2 construct: extracellular domain; also called FcγRIIb; CD32B; not shown: C-terminal His tag
T2 sequence (looked up): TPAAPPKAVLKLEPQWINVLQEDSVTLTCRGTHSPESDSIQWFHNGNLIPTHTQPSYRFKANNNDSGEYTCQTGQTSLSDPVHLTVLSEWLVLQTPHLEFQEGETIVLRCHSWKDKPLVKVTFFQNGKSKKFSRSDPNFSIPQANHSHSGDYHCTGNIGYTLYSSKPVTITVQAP

T3: FcgRIIaH (human, UniProt P12318 34-217)
T3 construct: extracellular domain; H131 allotype; also called FcγRIIa H; FcgRIIa type H; not shown: C-terminal His tag
T3 sequence (looked up): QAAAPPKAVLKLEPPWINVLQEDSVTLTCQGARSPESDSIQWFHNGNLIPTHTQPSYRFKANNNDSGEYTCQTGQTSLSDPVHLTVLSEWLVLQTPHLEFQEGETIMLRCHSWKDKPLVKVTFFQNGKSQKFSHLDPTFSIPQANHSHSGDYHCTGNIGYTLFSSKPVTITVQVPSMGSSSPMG


How the values were obtained:
FcgRIIIaV [1] = target: T4, FcgRIIIaV (human, UniProt P08637 17-208); test: SPR (Biacore); KD of H240-Kn120/H240-Hl068/L73-k0 divided by KD of the sample
T4 construct: extracellular domain; V158 allotype; also called FcγRIIIa V; not shown: C-terminal His tag
T4 sequence (P08637 17-208 F176V limits assumed): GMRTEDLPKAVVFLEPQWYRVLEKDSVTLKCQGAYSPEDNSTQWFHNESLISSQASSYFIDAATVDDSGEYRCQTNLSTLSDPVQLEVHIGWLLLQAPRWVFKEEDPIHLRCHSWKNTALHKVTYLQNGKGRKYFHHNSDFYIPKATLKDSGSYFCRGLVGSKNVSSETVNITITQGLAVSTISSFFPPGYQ
Procedure: (§1) The variants described above were assessed for their binding to FcγR according to the method described in Reference Example 8.
(§2) Analysis of interaction between obj ective antibody and the FcγR was carried out using Biacore T100 (GE Healthcare), Biacore T200, Biacore A100, and Biacore 4000. HBS-EP+ (GE Healthcare) was used as the running buffer, and the measurement temperature was set to 25° C. Chips produced by immobilizing the antigen peptide by the amine coupling method to a Series S sensor Chip CM5 (GE Healthcare), chips produced by allowing preliminarily biotinylated antigen peptides to interact with and immobilize onto a Series S Sensor Chip SA (certified) (GE Healthcare), chips produced by immobilizing Protein L (ACTIGEN, BioVision) to Series S Sencor Chip CM5 (GE Healthcare), or chips produced by immobilizing Protein A/G (Thermo Scientific) to Series S Sencor Chip CM5 (GE Healthcare) were used. Antibodies of interest were captured onto these chips, and allowed to interact to each FcγR diluted with running buffer. To regenerate and repeatedly use the chip, the antibodies captured onto the chip were washed off by reacting 10 mM glycine-HCl, pH 1.5.

FcgRIIaR [2] = target: T1, FcgRIIaR; test: as above
Procedure: as §1, §2

FcgRIIb [3] = target: T2, FcgRIIb; test: as above
Procedure: as §1, §2

FcgRIIaH [4] = target: T3, FcgRIIaH; test: as above
Procedure: as §1, §2

FcgRIIIaF [5] = target: T5, FcgRIIIaF (human, UniProt P08637 17-208); test: as above
T5 construct: extracellular domain; F158 allotype; also called FcγRIIIa F; not shown: C-terminal His tag
T5 sequence (P08637 17-208): as the sequence (P08637 17-208 F176V limits assumed) above, with V160F counted along it
Procedure: as §1, §2

FcgRIa = target: T6, FcgRIa (human, UniProt P12314 16-292); test: SPR (Biacore), antibody captured on chip, FcgR as analyte
T6 construct: extracellular domain; also called FcγRIa; FcγRI; not shown: C-terminal His tag
T6 sequence (P12314 16-292): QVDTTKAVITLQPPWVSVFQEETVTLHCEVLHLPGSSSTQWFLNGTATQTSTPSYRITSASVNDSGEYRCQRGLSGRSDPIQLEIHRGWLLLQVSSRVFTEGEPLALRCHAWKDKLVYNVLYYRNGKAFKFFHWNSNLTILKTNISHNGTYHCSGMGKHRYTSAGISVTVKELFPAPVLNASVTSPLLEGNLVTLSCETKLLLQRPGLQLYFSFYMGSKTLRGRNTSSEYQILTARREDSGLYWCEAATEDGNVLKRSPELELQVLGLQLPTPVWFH
Procedure: as §1, §2

FcgRIIIaV [6] = target: T4, FcgRIIIaV; test: as above
Procedure: as §1, §2

FcgRIIaR [7] = target: T1, FcgRIIaR; test: as above
Procedure: as §1, §2

FcgRIIb [8] = target: T2, FcgRIIb; test: as above
Procedure: as §1, §2

FcgRIIaH [9] = target: T3, FcgRIIaH; test: as above
Procedure: as §1, §2

FcgRIIIaF [10] = target: T5, FcgRIIIaF; test: as above
Procedure: as §1, §2

Row | Binder | Relative KD (FcgRIIIaV [1]) | Relative KD (FcgRIIaR [2]) | Relative KD (FcgRIIb [3]) | Relative KD (FcgRIIaH [4]) | Relative KD (FcgRIIIaF [5]) | Kd (FcgRIa) | Kd (FcgRIIIaV [6]) | Kd (FcgRIIaR [7]) | Kd (FcgRIIb [8]) | Kd (FcgRIIaH [9]) | Kd (FcgRIIIaF [10])
1 | H240-Kn179/H240-Hl089/L73-k0 (antibody, human IgG1, kappa, Heterodimerized anti-epiregulin antibody; E294R in one chain, G236T in the other) heavy 1: QDQLVQSGAEVKKPGASVKVSCKASGFNIKDTYIQWVRQAPGQGLEWMGRIDPLRKQTKYREKFEGRVTITADTSTNTAYMELSSLRSEDTAVYYCVRSGREFDYWGQGTLVTVSSASTKGPSVFPLAPSSKSTSGGTAALGCLVKDYFPEPVTVSWNSGALTSGVHTFPAVLQSSGLYSLSSVVTVPSSSLGTQTYICNVNHKPSNTKVDKKVEPKSCDKTHTCPPCPAPEYYWGPMVFLFPPKPKDTLMISRTPEVTCVVVDVSDEDPEVKFNWYVDGVEVHNAKTKPREKQYNATYRVVSVLTVLHQDWLNGKEYKCKVSNKDLPAPIEKTISKAKGQPREPQVCTLPPSRDELTKNQVSLWCLVKGFYPSDIAVEWESNGQPENNYKTTPPVLDSDGSFFLYSKLTVDKSRWQQGNVFSCSVMHEALHNHYTQKSLSLSP heavy 2: QDQLVQSGAEVKKPGASVKVSCKASGFNIKDTYIQWVRQAPGQGLEWMGRIDPLRKQTKYREKFEGRVTITADTSTNTAYMELSSLRSEDTAVYYCVRSGREFDYWGQGTLVTVSSASTKGPSVFPLAPSSKSTSGGTAALGCLVKDYFPEPVTVSWNSGALTSGVHTFPAVLQSSGLYSLSSVVTVPSSSLGTQTYICNVNHKPSNTKVDKKVEPKSCDKTHTCPPCPAPELLTGPSVFLFPPKPKDTLMISRTPEVTCVVVDVSHEEPEVKFNWYVDGVEVHNAKTKPREEQYNSTYRVVSVLTVLHQDWLNGKEYKCKVSNDALPKPIEETISKAKGQPREPQVYTLPPSRCELTKNQVSLSCAVKGFYPSDIAVEWESNGQPENNYKTTPPVLDSDGSFFLVSKLTVDKSRWQQGNVFSCSVMHEALHNHYTQKSLSLSP light: DIQMTQSPSSLSASVGDRVTITCRASQDIHKYIAWYQQKPGQAPRLLIQYTSTLQPGVPSRFSGSGSGTDYTFTISSLQPEDIATYYCLQYEQLRTFGGGTKVEIKRTVAAPSVFIFPPSDEQLKSGTASVVCLLNNFYPREAKVQWKVDNALQSGNSQESVTEQDSKDSTYSLSSTLTLSKADYEKHKVYACEVTHQGLSSPVTKSFNRGEC | 0 | 1.1 | 0.4 | 0.9 | 0.1 | 0.46 nM | 18 nM | 18 nM | 400 nM | 47 nM | 39 nM
2 | H240-Kn180/H240-Hl089/L73-k0 (antibody, human IgG1, kappa, Heterodimerized anti-epiregulin antibody; E294K in one chain, G236T in the other) heavy 1: QDQLVQSGAEVKKPGASVKVSCKASGFNIKDTYIQWVRQAPGQGLEWMGRIDPLRKQTKYREKFEGRVTITADTSTNTAYMELSSLRSEDTAVYYCVRSGREFDYWGQGTLVTVSSASTKGPSVFPLAPSSKSTSGGTAALGCLVKDYFPEPVTVSWNSGALTSGVHTFPAVLQSSGLYSLSSVVTVPSSSLGTQTYICNVNHKPSNTKVDKKVEPKSCDKTHTCPPCPAPEYYWGPMVFLFPPKPKDTLMISRTPEVTCVVVDVSDEDPEVKFNWYVDGVEVHNAKTKPRERQYNATYRVVSVLTVLHQDWLNGKEYKCKVSNKDLPAPIEKTISKAKGQPREPQVCTLPPSRDELTKNQVSLWCLVKGFYPSDIAVEWESNGQPENNYKTTPPVLDSDGSFFLYSKLTVDKSRWQQGNVFSCSVMHEALHNHYTQKSLSLSP heavy 2: QDQLVQSGAEVKKPGASVKVSCKASGFNIKDTYIQWVRQAPGQGLEWMGRIDPLRKQTKYREKFEGRVTITADTSTNTAYMELSSLRSEDTAVYYCVRSGREFDYWGQGTLVTVSSASTKGPSVFPLAPSSKSTSGGTAALGCLVKDYFPEPVTVSWNSGALTSGVHTFPAVLQSSGLYSLSSVVTVPSSSLGTQTYICNVNHKPSNTKVDKKVEPKSCDKTHTCPPCPAPELLTGPSVFLFPPKPKDTLMISRTPEVTCVVVDVSHEEPEVKFNWYVDGVEVHNAKTKPREEQYNSTYRVVSVLTVLHQDWLNGKEYKCKVSNDALPKPIEETISKAKGQPREPQVYTLPPSRCELTKNQVSLSCAVKGFYPSDIAVEWESNGQPENNYKTTPPVLDSDGSFFLVSKLTVDKSRWQQGNVFSCSVMHEALHNHYTQKSLSLSP light: DIQMTQSPSSLSASVGDRVTITCRASQDIHKYIAWYQQKPGQAPRLLIQYTSTLQPGVPSRFSGSGSGTDYTFTISSLQPEDIATYYCLQYEQLRTFGGGTKVEIKRTVAAPSVFIFPPSDEQLKSGTASVVCLLNNFYPREAKVQWKVDNALQSGNSQESVTEQDSKDSTYSLSSTLTLSKADYEKHKVYACEVTHQGLSSPVTKSFNRGEC | 0 | 1.3 | 0.4 | 1.1 | 0.1 | 0.27 nM | 14 nM | 16 nM | 380 nM | 38 nM | 24 nM
